15 sequences from the DeepSol protein solubility set can be followed below.

A short description of this series: soluble on expression in E. coli; label from the status in PepcDB or PDB records.
For the sequence “MADSEADKPLRKISAAFKKLAIIVNSPNPEVPVTQFSHACSLVSPLFGCLGIAFKFAEMDYVAKVDDLVRASSSISTLVVMMDKDIEADCVRKAGSHTRNLLRVKRGLDMVKVLFEQIIASEGDNSLKDPATKSYAQVFAPHHGWAIRKAVSLGMYALPTRAHLLNMLKEDEAAAKIHMQSYVNSSAPLITYLDNLFLSKQLGIDW”, the “soluble on expression in E. coli” value is recorded as “not soluble”.
To “MADSKAKPAKAANKTPPKSPGDPARAAKRLSLESEGANEGATAAPELSALEEAFRRFAVHGDTRATGKEMHGKNWSKLCKDCHVIDGKNVTVTDVDIVFSKIKGKSCRTITFEQFQEALEELAKKRFKDKSSEEAVREVHRLIEGRAPVISGVTKAVSSPTVSRLTDTSKFTGSHKERFDQSGKGKGKAGRVDLVDESGYVPGYKHAGTYDQKVQGGK” belongs “soluble”; to “MADSNSTVEQYRSLKRKMIEKKDLMRNNRTALRACILFNCLLGTSIRDAYNQFCRAVGSDVMEYREYEFWFYQFKRGDADFSDAISWNPNTIKLDELPIEVINTISSFSMPMERLTLRKVSKNLRTLIDSEPFCFQRIIVRIGHRTSYLQLDGYPGIEYIHCGADCNVLYGKRDKYVKNKNHVEYALTEAIQLMRNSNNHSKEFHVRAERSNDQELSMVLRKFFDSVEIELYAKKIVVSGFSFADTSSVLCHFKAGFLEEIQVLPGSGGPWTNVLVEMEQYKKAKVLKICTEFPVLLDIEDLLHFRRFEIAIKSDFTERMARKIRDVLTNSEHFEYAHIITQDLHHRTVIKFFNRNAENVFWNYGSMNYNNKKRLFHIEYNHRQFVIKKLNM”, “not soluble”; to “MADTKAKLTLNGDTAVELDVLKGTLGQDVIDIRTLGSKGVFTFDPGFTSTASCESKITFIDGDEGILLHRGFPIDQLATDSNYLEVCYILLNGEKPTQEQYDEFKTTVTLHTMIHEQITRLFHAFRRDSHPMAVMCGITGALAAFYHDSLDVNNPRHREIAAFRLLSKMPTMAAMCYKYSIGQPFVYPRNDLSYAGNFLNMMFSTPCEPYEVNPILERAMDRILILHADHEQNASTSTVRTAGSSGANPFACIAAGIASLWGPAHGGANEAALKMLEEISSVKHIPEFFRRAKDKNDSFRLMGFGHRVYKNYDPRATVMRETCHEVLKELGTKDDLLEVAMELENIALNDPYFIEKKLYPNVDFYSGIILKAMGIPSSMFTVIFAMARTVGWIAHWSEMHSDGMKIARPRQLYTGYEKRDFKSDIKR”, “soluble”.
To “MAEDEPDAKSPKTGGRAPPGGAEAGEPTTLLQRLRGTISKAVQNKVEGILQDVQKFSDNDKLYLYLQLPSGPTTGDKSSEPSTLSNEEYMYAYRWIRNHLEEHTDTCLPKQSVYDAYRKYCESLACCRPLSTANFGKIIREIFPDIKARRLGGRGQSKYCYSGIRRKTLVSMPPLPGLDLKGSESPEMGPEVTPAPRDELVEAACALTCDWAERILKRSFSSIVEVARFLLQQHLISARSAHAHVLKAMGLAEEDEHAPRERSSKPKNGLENPEGGAHKKPERLAQPPKDLEARTGAGPLARGERKKSVVESSAPGANNLQVNALVARLPLLLPRAPRSLIPPIPVSPPILAPRLSSGALKVATLPLSSRAGAPPAAVPIINMILPTVPALPGPGPGPGRAPPGGLTQPRGTENREVGIGGDQGPHDKGVKRTAEVPVSEASGQAPPAKAAKQDIEDTASDAKRKRGRPRKKSGGSGERNSTPLKSAAAMESAQSSRLPWETWGSGGEGNSAGGAERPGPMGEAEKGAVLAQGQGDGTVSKGGRGPGSQHTKEAEDKIPLVPSKVSVIKGSRSQKEAFPLAKGEVDTAPQGNKDLKEHVLQSSLSQEHKDPKATPP” belongs “soluble”; to “MAEDIEEILAEIDGSQIEEYQKFFDAFDRGKQGYIMATQIGQIMHGMEQDFDEKTLRKLIRKFDADGSGKLEFDEFCALVYTVANTVDKETLEKELREAFRLFDKEGNGYISRPTLKALLKEIADDLTDQQLEEAVDEIDEDGSGKIEFEEFWELMAGESD”, “not soluble”; to “MAEEQARHVKNGLECIRALKAEPIGSLAIEEAMAAWSEISDNPGQERATCREEKAGSSGLSKPCLSAIGSTEGGAPRIRGQGPGESDDDAETLGIPPRNLQASSTGLQCHYVYDHSGEAVKGIQDADSIMVQSGLDGDSTLSGGDNESENSDVDIGEPDTEGYAITDRGSAPISMGFRASDVETAEGGEIHELLRLQSRGNNFPKLGKTLNVPPPPDPGRASTSGTPIKKGTDARLASFGTEIASSLTGGATQCARKSPSEPSGPGAPAGNVPECVSNAALIQEWTPESGTTISPRSQNNEEGGDHYDDELFSDVQDIKTALAKIHEDNQKIISKLESLLLLKGEVESIKKQINRQNISISTLEGHLSSIMIAIPGLGKDPNDPTADVEINPDLKPIIGRDSGRALAEVLKKPVASRQLQGMTNGRTSSRGQLLKEFQLKPIGKKMSSAVGFVPDTGPASRSVIRSIIKSSRLEEDRKRYLMTLLDDIKGANDLAKFHQMLVKIIMK”, “soluble”.
To “MAEEQQNSDQSNGGNVIPTPEEVATFLHKTVEEGGWEKCWEEEITPWDQGRATPLIVHLVDTSSLPLGRALVPGCGGGHDVVAMASPERFVVGLDISESALAKANETYGSSPKAEYFSFVKEDVFTWRPTELFDLIFDYVFFCAIEPEMRPAWAKSMYELLKPDGELITLMYPITDHVGGPPYKVDVSTFEEVLVPIGFKAVSVEENPHAIPTRKGKEKLGRWKKINLEHHHHHH” belongs “soluble”; to “MAEHDITPEVTISKTQRRYKVGYVRARHQDRKTGIARYYSQHPSLHLKGDWLKEAGFDTGRGVTVKISEGGLTIIADSDEVQELRDGMFSVLNES”, “not soluble”; to “MAEKSLITQETVGMTDEGLPPVLQGRNNSTQQVSFLRARVKCTDQGLITKIGVLPRGAFIKSIKIYAMTDFEDVTATFGKEPHGNDYGDVGLTQSTDSNVYIPMEERDVPLEVENTIYMTRDKKSSKGDVEVIVEFYTNR”, “not soluble”.
Consider “MAELSNCSKCGRLFVKLSTRDVCESCYQEEERQFERVYAFLRKRENRTATMAQVVEATGVEEKLIIKWIRAGRLQLVHFPNLGYPCDSCGAMIREGRLCAKCLGQLQADLRRAEGKKEKEARSRHATYYTQDHKER”, for which the “soluble on expression in E. coli” value is “not soluble”.
The value for “MAELTETSPETPETTEAIRAVEAFLNALQNEDFDTVDAALGDDLVYENVGFSRIRGGRRTATLLRRMQGRVGFEVKIHRIGADGAAVLTERTDALIIGPLRVQFWVCGVFEVDDGRITLWRDYFDVYDMFKGLLRGLVALVVPSLKATL” was “soluble”; that for “MAELYYEDNRAYSYTQSFLKMFYLIFGQAYSRDYLSIDKYNKLCSNKDTKIHMPKLKIDEETNIVFFSKEEMQQLDNYFKGTNVETAYLLGKYCGLRINECFGLKWDKIDLKNGTITIDRQMQYQNGMIKLVPLKTRNAKRKIYMCSKLKEYFTNLMQQQEKYKTELAELRQQKQTLIKDIQGNTISSLELVNSMPIGRMQTVNAMKYHTRTLKEKYHIDFKYHYLRHTYGTTLATLNTPEHLLCNQMGHSSSSVTHKYYIGISKQGIDELLKNLERV” was “not soluble”.
To “MAEQRSNIMRLPPSGYRLHRFPPLAQPVAVDEEFGLDNQGWQESQVDIQQQLEAGFQQGLQQGHEEGLRQGIEQGKQQGLLDGQKEGFQKGFVSGEQAGKQGFLEAAKPVNDLFQALSRWQSEKEQQQRHMICELVQKVAQQVIRAELTLMPQQILALVDETLSAMPGKAETVTVHLNPQDLERITHINADLPKSWKLVANNELPIGGCQLVTDDAEADASCDSRLEACMDNVKQHLLDEVSIPQVESENELEHHHHHH” belongs “soluble”.
The value for “MAESLLIKDIAIVTENEVIKNGYVGINDGKISTVSTERPKEPYSKEIQAPADSVLLPGMIDIHIHGGYGADTMDASFSTLDIMSSRLPEEGTTSFLATTITQEHGNISQALVNAREWKAAEESSLLGAELLGIHLEGPFVSPKRAGAQPKEWIRPSDVELFKKWQQEAGGLIKIVTLAPEEDQHFELIRHLKDESIIASMGHTDADSALLSDAAKAGASHMTHLYNAMSPFHHREPGVIGTALAHDGFVTELIADGIHSHPLAAKLAFLAKGSSKLILITDSMRAKGLKDGVYEFGGQSVTVRGRTALLSDGTLAGSILKMNEGARHMREFTNCSWTDIANITSENAAKQLGIFDRKGSVTVGKDADLVIVSSDCEVILTICRGNIAFISKEADQI” was “soluble”.
